Experimental data as given in IntAct's records for PubMed 23386615.

B1: Peroxiredoxin-1 (Homo sapiens), Q06830 (parent)
chain: MSSGNAKIGHPAPNFKATAVMPDGQFKDISLSDYKGKYVVFFFYPLDFTFVCPTEIIAFSDRAEEFKKLNCQVIGASVDSHFCHLAWVNTPKKQGGLGPMNIPLVSDPKRTIAQDYGVLKADEGISFRGLFIIDDKGILRQITVNDLPVGRSVDETLRLVQAFQFTDKHGEVCPAGWKPGSDTIKPDVQKSKEYFSKQK
partner: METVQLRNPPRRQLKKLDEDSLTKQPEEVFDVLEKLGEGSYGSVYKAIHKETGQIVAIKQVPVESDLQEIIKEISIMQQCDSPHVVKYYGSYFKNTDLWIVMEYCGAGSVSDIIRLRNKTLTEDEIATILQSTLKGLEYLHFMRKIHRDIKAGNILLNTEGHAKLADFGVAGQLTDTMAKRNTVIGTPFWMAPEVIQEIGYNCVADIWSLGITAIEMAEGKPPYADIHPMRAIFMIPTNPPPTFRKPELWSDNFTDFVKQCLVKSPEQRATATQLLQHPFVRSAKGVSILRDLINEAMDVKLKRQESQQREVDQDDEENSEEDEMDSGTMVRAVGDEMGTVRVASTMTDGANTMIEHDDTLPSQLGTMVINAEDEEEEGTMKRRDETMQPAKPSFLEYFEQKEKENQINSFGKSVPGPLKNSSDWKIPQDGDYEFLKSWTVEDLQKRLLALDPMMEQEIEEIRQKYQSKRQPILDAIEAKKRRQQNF
B2: Serine/threonine-protein kinase 4 (Homo sapiens), Q13043 (parent)
chain: B1 partner
partner: B1 chain

Variants of: B1
Conditions: with stk4_human STK4, Q13043

Variant | effect of a mutation on the interaction
C52S;C173S | decreasing interaction

Variants of: B2
Conditions: with prdx1_human PRDX1, Q06830

Variant | effect of a mutation on the interaction
K59R | increasing interaction
